Laboratory results as given in patent US20170247437A1 (ONCOMED PHARMACEUTICALS, published 2017).

B1: second generation humanized anti-RSPO1 antibody h89M5-H8L5 (antibody, human IgG1, kappa, V domains shown)
VH: EVQLVQSGAEVKKPGESLRISCKGSGYSFTGYTMHWVRQMPGKGLEWMGGINPNNGGTTYNQNFKGHVTISADKSISTAYLQWSSLKASDTAMYYCARKEFSDGYYFFAYWGQGTLVTVSS
VL: DIVMTQSPDSLAVSLGERATINCKASQDVIFAVAWYQQKPGQPPKLLIYWASTRHTGVPDRFSGSGSGTDFTLTISSLQAEDVAVYYCQQHYSTPWTFGGGTKVEIKR
notes: Humanized version of mouse antibody 89M5, with the same CDRs as h89M5-H2L2; also called h89R5-H8L5

Tests used:
[1] = target: FLAG-RSPO1furin-CD4TM-GFP (human) (UniProt Q2MKA7); assay: FACS on HEK-293 cells transiently expressing FLAG-RSPO1furin-CD4TM-GFP; secondary APC-conjugated anti-IgG alone, no primary antibody
Chain of FLAG-RSPO1furin-CD4TM-GFP (human) (Q2MKA7 34-135): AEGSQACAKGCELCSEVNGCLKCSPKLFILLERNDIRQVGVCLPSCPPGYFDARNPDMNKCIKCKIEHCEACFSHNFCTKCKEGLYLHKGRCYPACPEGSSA

[2] = target: T1, recombinant human RSPO1 (R&D Systems) (human, UniProt Q2MKA7 21-263); assay: ELISA on plate-coated recombinant human RSPO1, anti-human IgG Fc-HRP detection, 4-parameter fit, 3 runs
T1 construct: Bought protein
T1 sequence (Q2MKA7 21-263 limits assumed): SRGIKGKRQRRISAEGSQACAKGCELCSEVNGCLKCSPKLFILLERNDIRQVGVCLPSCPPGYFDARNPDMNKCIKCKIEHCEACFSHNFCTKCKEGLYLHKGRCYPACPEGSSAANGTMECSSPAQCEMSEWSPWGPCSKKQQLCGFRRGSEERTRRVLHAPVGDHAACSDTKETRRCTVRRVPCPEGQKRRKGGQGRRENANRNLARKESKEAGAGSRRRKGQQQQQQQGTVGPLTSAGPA
Description: High binding 96 well plates (Nalge Nunc International) were coated with […] recombinant human RSPO1 (R&D Systems) in coating buffer (1× PBS, pH 7.4) overnight at 2-8° C. The plates were washed 3-6 times after each step with 300 μl/well of 1× PBS, 0.05% Tween-20, pH 7.4. After coating, the plates were incubated with 250 μl/well of blocking buffer (1× PBS, 0.1% gelatin, 0.1% TWEEN-20, pH 7.4) for 60 minutes ±10 minutes at room temperature (19-25° C.). Plates were washed and incubated with 100 μl/well of first generation humanized anti-RSPO1 antibody h89M5-H2L2 and second generation humanized antibody h89M5-H8L5 for 120 minutes ±10 minutes at room temperature. First generation humanized anti-RSPO1 antibody h89M5-H2L2 was use as the reference standard and the positive control. The antibodies were prepared at an initial concentration of 2.5 μg/ml and diluted 3-fold serially, ranging from 2.5 μg/ml to […]. Each sample was tested in duplicate and the experiment was run 3 times. […] The binding of the antibodies to RSPO1 was measured by absorbance at 450 nm and 650 nm using an ELISA plate reader (Molecular Devices). The results were analyzed using a 4-parameter curve fit, and relative binding potency was determined by comparing EC₅₀ values of the reference to that of the samples.

Molecule | MFI [1] | mean relative binding potency (EC50 against reference h89M5-H2L2) [2] [%]
Secondary Ab Control (antibody) | 3.2 | –
B1 | – | 120
